Source: US20080267949A1, “Peptides capable of binding to serum proteins” (Ablynx N.V., priority 2006, published 2008)
Ends that are not written are not given here. c2 linker = not defined here

Legend:
[1] = biological target: T1, rhErbB2-Fc antigen (R&D Systems) (human, UniProt P04626 23-652); assay: SPR: rhErbB2-Fc on a CM5 chip (~3000 RU), 2D3-17D12 injected alone or pre-incubated with 1 or 5 µM HSA (concentration of 2D3-17D12 not given)
T1 construct: Bought; also called HER2 antigen; Her-2 antigen; not shown: Fc part of the bought fusion; not described
Method: (§1) FIG. 11: Surface plasmon resonance analysis of simultaneous binding of 2D3-17D12 fusion protein to HER2 antigen and human serum albumin (HSA). 2D3-17D12 fusion protein was pre-incubated or not with 1 and 5 μM HSA, followed by flow over immobilized 2D3 target antigen, rhErbB2-Fc. The dotted line represents the binding characteristics of 2D3 in presence of 25 μM HSA.

[2] = biological target: T2, human serum albumin (HSA) (Homo sapiens, UniProt P02768); assay type: binding
T2 construct: purchased Sigma A5763
Method: FIG. 10: Surface plasmon resonance analysis of the binding of Nanobody® (2D3) and Nanobody® fusion peptide (2D3-17D12) on human serum albumin (HSA). Coating of the chip (CM5) was performed by amine coupling using NHS/EDC for activation and ethanolamine for deactivation (Biacore amine coupling kit). hip coated with 7000 RU human serum albumin (Sigma, 99% pure) and 2500 RU irrelevant protein antigen. 2D3 and 2D3-17D12 was successively injected over the chip in increasing concentrations (1.25 μM, 2.5 μM and 5 μM). HBS-EP was used as flow buffer at a rate of 10 μl min-1.20 μl of sample was injected for 20 s.
The 2D3-17D12 fusion protein […] […] […] (SEQ ID NO: 30) was expressed in E. coli TG1 cells. The fusion protein was purified by IMAC/SEC and binding to HSA was assessed in BIAcore™ 3000. Therefore, a dilution series of 2D3-17D12 fusion protein and 2D3 Nanobody was injected on a CM5 chip coated with high density HSA (7000RU). […] Calculated affinity of 2D3-17D12 for HSA is ˜10 μM.

irrelevant protein = assay: Surface plasmon resonance control on CM5 chip coated with irrelevant protein; assay type: binding; conditions: 2.5 μM injected; 2400 RU irrelevant protein
rhErbB2-Fc antigen = biological target: T3, rhErbB2-Fc antigen (Homo sapiens, UniProt P04626); assay: Surface plasmon resonance: simultaneous binding to HER2 and HSA, chip coated with rhErbB2-Fc; conditions: pre-incubated with HSA (1 and 5 μM); ~3000 RU rhErbB2-Fc
T3 construct: purchased R&D Systems
Method: as §1
To examine whether the 2D3 Nanobody and the 17D12 CDR3 can simultaneously bind their respective target antigen (Her-2 antigen for 2D3 Nanobody, albumin for 17D12 CDR3), the following experiment was performed. 2D3-17D12 fusion protein was pre-incubated or not with increasing concentration of HSA and then injected on a CM5 chip coated with rhErbB2-Fc antigen (R&D Systems) at a density of ˜3000 RU.

[3] = biological target: T4, human tumor necrosis factor α (human, UniProt P01375 77-233); assay: phage binding assay on coated Maxisorp wells, 5 phage dilutions per peptide, Odyssey image
T4 construct: Negative control antigen; also called TNF
Method: (§2) Binding of 17D12, as selected from primary screening after 2 selection rounds on HSA, to serum albumin of different species [mouse serum albumin (MSA, A3559, Sigma), cynomolgus serum albumin (CSA, in-house production), bovine serum albumin (BSA, A6003, Sigma) and HSA] and to negative control antigens [ovalbumin, human tumor necrosis factor α (TNF, in-house production)] was assessed using different phage concentrations. Additionally, similar binding studies were performed with two truncated variants of 17D12. Both peptides, i.e. 17D12-CDR3-NC (SEQ ID NO: 26) and 17D12-CDR3-C (SEQ ID NO;27), lack the flanking FR residues of 17D12 and the former is a non-constrained loop, whereas the latter is constrained (FIG. 4).
(§3) The phage binding assay was performed essentially as described in example 4. Full length 17D12 peptide as well as truncated peptides, 17D12-CDR3-NC and 17D12-CDR3-C, bind dose-dependently to HSA and CSA, whereas reactivity to MSA and BSA was not apparent in the assay performed (FIG. 6). There is no significant non-specific binding of 17D12 and 17D12-CDR3-NC to irrelevant proteins tested (ovalbumin and TNF). In contrast, there is a subtle degree of non-specific binding with the constrained truncated peptide.

bovine serum albumin = biological target: T5, bovine serum albumin (bovine, UniProt P02769 25-607); assay: as above
T5 construct: also called BSA
Method: as §2, §3

mouse serum albumin = biological target: T6, mouse serum albumin (mouse, UniProt P07724 25-608); assay: as above
T6 construct: also called MSA
Method: as §2, §3

[4] = biological target: T7, ovalbumin (negative control antigen) (UniProt P01012 2-386); assay: as above
T7 construct: Bought protein
T7 sequence (looked up): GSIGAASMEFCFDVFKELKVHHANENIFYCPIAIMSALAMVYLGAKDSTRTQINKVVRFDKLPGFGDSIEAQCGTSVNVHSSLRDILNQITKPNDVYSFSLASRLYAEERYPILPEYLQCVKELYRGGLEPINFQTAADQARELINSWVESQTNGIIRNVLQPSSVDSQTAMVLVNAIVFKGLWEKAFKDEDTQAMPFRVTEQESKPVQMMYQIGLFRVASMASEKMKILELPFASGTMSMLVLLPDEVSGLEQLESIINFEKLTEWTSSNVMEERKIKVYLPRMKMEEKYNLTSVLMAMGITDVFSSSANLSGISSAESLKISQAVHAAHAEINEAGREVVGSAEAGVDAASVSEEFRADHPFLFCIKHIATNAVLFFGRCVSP
Method: as §2, §3

cynomolgus serum albumin = biological target: T8, cynomolgus serum albumin (cynomolgus, UniProt A2V9Z4 25-608); assay: phage binding assay on coated Maxisorp wells, 5 phage dilutions per peptide (concentrations not given), Odyssey image
T8 construct: also called CSA; cynoSA
Method: as §2, §3

human serum albumin [5] = biological target: T9, human serum albumin (human, UniProt P02768 25-609); assay: phage binding assay: 10 µg/mL HSA coated on Maxisorp, M13 phage displaying the peptide on pIII in 1/2 dilution series, anti-M13 + goat anti-mouse IRDye700, Odyssey intensity
T9 construct: Bought protein; also called HSA
Method: After two selection rounds, monoclonal phage were screened for binding on HSA versus negative control antigen, ovalbumin (A5378, Sigma). Wells of a Maxisorp microtiter plate (Nunc) were coated using 10 μg/mL HSA or ovalbumin and blocked with SuperBlock T20 PBS Blocking Buffer (Pierce) to prevent non-specific binding. Phages, produced in 96-well plate, were diluted 1/10 in 1:1 (v:v) Superblock T20 PBS Blocking Buffer:PBS+0.05% Tween-20 and incubated on both HSA and ovalbumin. Bound phages were detected using anti-M13 (GE Healthcare) and goat anti-mouse IRDye700 (Rockland) and signals were read-out on Odyssey (LI-COR Biosciences). […] This peptide is referred to as 17D12. Its full amino acid sequence is given in SEQ ID NO: 1, and its encoding nucleotide sequence is given in SEQ ID NO:2. The amino acid sequence of the CDR3 loop is given in SEQ ID NO:3.
The phage binding assay was performed essentially as described in example 3. Phages, produced in 10 mL culture volume, were incubated on both HSA and ovalbumin in a ½ dilution series, starting with 7.5×10¹¹ phages/mL. […] Non-specific binding to ovalbumin is slightly higher for the constrained truncated peptide.

human serum albumin [6] = biological target: T9, human serum albumin; assay: SPR: biotinylated peptide captured on a streptavidin sensorchip, HSA injected for 4 min at 10 µl/min, reference-subtracted
Method: Binding of the 2 synthetic peptides Ala-17D12-CDR3 and Cys-Ala-17D12-CDR3 to HSA was assessed by surface plasmon resonance. The biotinylated peptides are each captured on streptavidin-coated sensorchip SA T071122. HSA binding is assessed at various concentrations. The samples were injected for 4 min at a flow rate of 10 ul/min over the activated and reference surfaces to allow for binding to chip-bound antigen. Next, binding buffer without HSA is sent over the chip at the same flow rate to allow for dissociation of bound HSA. After 10 min, remaining bound analyte is removed by injecting regeneration solution (50 mM NaOH).

[7] = biological target: T7, ovalbumin (negative control antigen); assay: phage binding assay: ovalbumin coated on Maxisorp, M13 phage in 1/2 dilution series from 10^12 phages/mL, Odyssey intensity
Method: The phage binding assay to HSA and ovalbumin was performed essentially as described in example 4. Phages, produced in 10 mL culture volume, were incubated on both HSA and ovalbumin in a ½ dilution series, starting with 10¹² phages/mL. Dose-dependent binding to HSA was retained upon fusion of the peptide 17D12 at the C-terminus of a non-albumin binding intact VHH in the presence or absence of a GlySer linker (FIG. 9).

[8] = biological target: T1, rhErbB2-Fc antigen (R&D Systems); assay: SPR: rhErbB2-Fc on a CM5 chip (~3000 RU), 2D3 injected in the presence of 25 µM HSA (concentration of 2D3 not given)
Method: as §1

T5 sequence (P02769 25-607 limits assumed): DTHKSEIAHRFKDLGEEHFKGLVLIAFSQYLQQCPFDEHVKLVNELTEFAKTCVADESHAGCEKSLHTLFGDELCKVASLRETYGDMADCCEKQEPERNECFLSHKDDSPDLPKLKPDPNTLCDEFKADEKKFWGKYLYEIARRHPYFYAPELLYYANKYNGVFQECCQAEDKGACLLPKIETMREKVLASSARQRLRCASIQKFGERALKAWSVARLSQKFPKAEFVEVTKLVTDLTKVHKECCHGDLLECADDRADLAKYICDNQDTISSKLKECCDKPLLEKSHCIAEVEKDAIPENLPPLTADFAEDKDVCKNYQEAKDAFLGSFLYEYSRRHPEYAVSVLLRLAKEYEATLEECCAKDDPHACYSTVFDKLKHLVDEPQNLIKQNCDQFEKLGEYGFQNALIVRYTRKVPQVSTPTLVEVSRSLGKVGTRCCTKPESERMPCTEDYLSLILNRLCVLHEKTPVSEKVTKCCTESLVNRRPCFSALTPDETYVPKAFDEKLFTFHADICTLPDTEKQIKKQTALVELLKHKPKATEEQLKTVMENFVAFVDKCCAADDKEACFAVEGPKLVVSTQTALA
T6 sequence (P07724 25-608 limits assumed): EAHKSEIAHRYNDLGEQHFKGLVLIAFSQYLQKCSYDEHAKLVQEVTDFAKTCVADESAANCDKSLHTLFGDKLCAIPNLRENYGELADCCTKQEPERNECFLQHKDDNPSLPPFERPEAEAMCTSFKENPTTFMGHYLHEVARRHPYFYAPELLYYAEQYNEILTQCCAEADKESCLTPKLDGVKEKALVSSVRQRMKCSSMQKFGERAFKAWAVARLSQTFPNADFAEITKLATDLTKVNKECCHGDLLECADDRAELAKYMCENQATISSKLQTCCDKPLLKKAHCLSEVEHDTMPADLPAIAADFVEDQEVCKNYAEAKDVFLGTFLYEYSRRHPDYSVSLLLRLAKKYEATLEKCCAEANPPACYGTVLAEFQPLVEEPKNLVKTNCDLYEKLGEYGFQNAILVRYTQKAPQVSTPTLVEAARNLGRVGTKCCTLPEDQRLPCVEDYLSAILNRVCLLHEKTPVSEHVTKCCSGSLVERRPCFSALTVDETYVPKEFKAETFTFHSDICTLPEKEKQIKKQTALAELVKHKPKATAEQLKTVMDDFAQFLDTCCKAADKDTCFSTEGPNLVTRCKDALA
T4 sequence (P01375 77-233 limits assumed): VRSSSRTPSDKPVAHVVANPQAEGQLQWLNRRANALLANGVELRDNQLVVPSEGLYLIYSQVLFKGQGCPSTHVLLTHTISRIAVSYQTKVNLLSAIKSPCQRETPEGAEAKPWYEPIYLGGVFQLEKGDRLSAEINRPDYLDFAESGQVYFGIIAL
T8 sequence (A2V9Z4 25-608 limits assumed): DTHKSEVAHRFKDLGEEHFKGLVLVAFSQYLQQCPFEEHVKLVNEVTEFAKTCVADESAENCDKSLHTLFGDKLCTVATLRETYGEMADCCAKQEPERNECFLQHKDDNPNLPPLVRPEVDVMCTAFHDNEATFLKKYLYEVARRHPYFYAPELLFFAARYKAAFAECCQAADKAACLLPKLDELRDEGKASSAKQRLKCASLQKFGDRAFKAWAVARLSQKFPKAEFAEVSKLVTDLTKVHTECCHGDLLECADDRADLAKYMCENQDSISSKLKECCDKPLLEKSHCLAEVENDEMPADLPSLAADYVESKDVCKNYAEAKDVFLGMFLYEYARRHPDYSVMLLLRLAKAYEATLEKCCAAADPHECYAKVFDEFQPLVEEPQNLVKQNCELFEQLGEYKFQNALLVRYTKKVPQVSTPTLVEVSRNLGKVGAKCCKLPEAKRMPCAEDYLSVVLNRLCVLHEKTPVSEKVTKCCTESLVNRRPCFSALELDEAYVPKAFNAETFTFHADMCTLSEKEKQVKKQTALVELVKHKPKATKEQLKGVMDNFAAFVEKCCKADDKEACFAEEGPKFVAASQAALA

B1: 2D3-17D12 fusion protein (other)
chain: EVQLVESGGSLVQPGGSLRLSCAASGFTFDDYAMSWVRQVPGKGLEWVSSINWSGTHTDYADSVKGRFTISRNNANNTLYLQMNSLKSEDTAVYYCAKNWRDAGTTWFEKSGSAGQGTQVTVSSDTAVYYCNAAASYSDYDVFGGGTDFGPWGQGTQVGGGS
notes: Soluble VHH-peptide fusion expressed in E. coli TG1 and purified by IMAC/SEC; also called Nanobody fusion peptide (2D3-17D12)
binding result [1]: binds

B2: 2D3-17D12: fusion of HER2-binding VHH 2D3 with HSA-binding peptide 17D12, expressed in E. coli TG1 (protein)
chain: B1 chain
modifications: 2D3-17D12 fusion protein
Kd [2]: ~10 µM
Binding to HSA (SPR) ([2]; 7000 RU HSA, injected at 1.25, 2.5 and 5 μM): dose-dependent binding
Binding to irrelevant protein (SPR control) (irrelevant protein): no specific binding was detected
Off-rates on rhErbB2-Fc, premixed with HSA compared to control injection (rhErbB2-Fc antigen): slightly higher but comparable off-rates

AAASYSDYDVFGGGTDFGPA (peptide, not shown: large carriers, not fully specified, Tested as phage)
binding result [3]: no binding
binding result (bovine serum albumin): no binding
binding result (mouse serum albumin): no binding
binding result [4]: no binding
binding result (cynomolgus serum albumin): binds
EC50 (read off the curve) (human serum albumin [5]): ~7e+10 phage/mL

B3: Ala-17D12-CDR3 synthetic biotinylated peptide (acetyl-AAASYSDYDVFGGGTDFGP-c2 linker-biotin) (peptide)
peptide: Ac-AAASYSDYDVFGGGTDFGP-{c2 linker-biotin}
modifications: reading uncertain
notes: Captured on a streptavidin-coated sensor chip; HSA injected as analyte; also called PEO-100
binding result (human serum albumin [6]): binds

B4: 17D12 peptide (CDR3 loop with flanking FR3 and FR4 residues), expressed on pIII of M13 phage (peptide)
peptide: DTAVYYCNAAASYSDYDVFGGGTDFGPWGQGTQV
modifications: not fully specified (C-terminus)
notes: also called full length 17D12; not shown: library construct: followed by His6 and c-myc tags, a short Gly-Ala-Ala linker and M13 pIII
binding result [3]: no binding
binding result (bovine serum albumin): no binding
binding result (mouse serum albumin): no binding
binding result (cynomolgus serum albumin): binds
EC50 (read off the curve) (human serum albumin [5]): ~5e+10 phage/mL
binding result [7]: no binding (tested: 100 x10^10 phage/mL)

B5: 2D3 Nanobody (VHH that specifically binds to HER2) (VHH)
VHH: EVQLVESGGSLVQPGGSLRLSCAASGFTFDDYAMSWVRQVPGKGLEWVSSINWSGTHTDYADSVKGRFTISRNNANNTLYLQMNSLKSEDTAVYYCAKNWRDAGTTWFEKSGSAGQGTQVTVSS
notes: also called VHH 2D3
binding result [8]: binds

B6: Cys-Ala-17D12-CDR3 synthetic biotinylated peptide (acetyl-CAAASYSDYDVFGGGTDFGP-c2 linker-biotin) (peptide)
peptide: Ac-CAAASYSDYDVFGGGTDFGP-{c2 linker-biotin}
modifications: reading uncertain
notes: Captured on a streptavidin-coated sensor chip; HSA injected as analyte; also called PEO-101.5
binding result (human serum albumin [6]): binds
